Measurements: patent US20260209362A1 (VIB VZW, published 2026)

B1: anti-IL-12Rβ2 VHH clone 20542 (VHH, not shown: small tags and cut ends)
VHH: QVQLQESGGGLVQAGGSLRLSCAASGRTFSTYAMGWFRQAPGKEREFVAAISWSGGRTYYADSVKGRFTISRDNAKNTAYLQMSSLIPEDTAVYYCAADPADYTGSYYYQRSYDYWGQGTQVTVSS
notes: tested as periplasmic extract; also called 3CAMS12
B2: anti-IL-12Rβ2 VHH clone 20553 (VHH, not shown: small tags and cut ends)
VHH: QVQLQESGGGLVQPGGSLRLSCAASGRTFSTYAMGWFRQAPGKEREFVAAISWSGGRTYYADSVKGRFTISRDNAKNTAYLQMSSLIPEDTAVYYCAADPADYTGSYYYQRSYDYWGQGTQVTVSS
notes: tested as periplasmic extract; also called 3CAMS73
B3: anti-IL-12Rβ2 VHH clone 20471 (VHH, not shown: small tags and cut ends)
VHH: QVQLQESGGGLVQAGGSLRLSCAASGRTFVTYAMGWFRQAPGKEREFVAAISWSGGRLYYADSAKGRFTISRDNAKNTVYLQMNSLKPEDTAVYYCAADPQDYTGRDYQRRRYDYWGQGTQVTVSS
notes: tested as periplasmic extract; also called 2CAM11
B4: anti-IL-12Rβ2 VHH clone 20515 (VHH, not shown: small tags and cut ends)
VHH: QVQLQESGGGLVQAGGSLRLSCAASGRTFSTYAMGWFRQAPGKEREFVAAISWSGGRTYYADSVKGRFAISRDNAKNTAYLQMNSLKPEDTAVYYCAADPSDYMGSYYGARRYDYWGQGTQVTVSS
notes: tested as periplasmic extract; also called 3CAM79
B5: anti-IL-12Rβ2 VHH clone 20466 (VHH, not shown: small tags and cut ends)
VHH: QVQLQESGGGLVQAGDSLRLSCAPSGRTFSTYAMGWFRQAPGKEREFVAGISWSGGRTYYADSVKGRFTISRDNAKNTVYLQMNSLKPEDTAVYYCAADPMDYSGSLYAQRSYDYWGQGTQVTVSS
notes: tested as periplasmic extract; also called 2CAM2
B6: anti-IL-12Rβ2 VHH clone 20532 (VHH, not shown: small tags and cut ends)
VHH: QVQLQESGGGLVQAGGSLRLSCAASGRTFVTYAMGWFRQAPGKEREFVAAISWSGGRLYYADSVKGRFTISRDNAKNTVYLQMNSLKPEDTAVYYCAADPQDYTGRDYQRRRYDYWGQGTQVTVSS
notes: tested as periplasmic extract; also called 2CAMS19
B7: anti-IL-12Rβ2 VHH clone 20474 (VHH, not shown: small tags and cut ends)
VHH: QVQLQESGGGLVQAGGSLRLSCAASGFTFDDYTIGWFRQAPGKEREFVAALSWSAGSTFFTDSVKDRFSISRDNAKNTVLLQMNSLKPEDTAVYYCAAKNPPHRWSDITKSLQYAYWGQGTQVTVSS
notes: tested as periplasmic extract; also called 2CAM16
B8: anti-IL-12Rβ2 VHH clone 20468 (VHH, not shown: small tags and cut ends)
VHH: QVQLQESGGGLVQAGGSLRLSCVASGRTFSSYGMGWFRQAPGKEREFVTGISSAGSWIGDITSYADSVKGRFTISRDNAKNILYLQMNSLKPEDTAVYYCAAAYHGSRYYVGSTANEYTTWGQGTQVTVSS
notes: tested as periplasmic extract; also called 2CAM6
B9: anti-IL-12Rβ2 VHH clone 20493 (VHH, not shown: small tags and cut ends)
VHH: QVQLQESGGGLVQAEGSLRLSCVASGRTFSSYGMGWFRQAPGKEREFVTGISSAGSWIGDITSYADSVKGRFTISRDNAKNILYLQMNSLKPEDTAVYYCAAAYHGSRYYVGSTANEYTTWGQGTQVTVSS
notes: tested as periplasmic extract; also called 2CAM62
B10: anti-IL-12Rβ2 VHH clone 20517 (VHH, not shown: small tags and cut ends)
VHH: QVQLQESGGGLAQPGGSLRLSCTASGSIFAIDDMYWYRQAPGKQREFVAYITATNSANYLDSVNGRFTISRDNAKNSVYLQMNSLKPEDTAVYYCNAKQIVGFQIDEYWGQGTQVTVSS
notes: tested as periplasmic extract; also called 2CRMS10
B11: anti-IL-12Rβ2 VHH clone 20519 (VHH, not shown: small tags and cut ends)
VHH: QVQLQESGGGLVQAGESLRLSCTASGSIFAIDDMYWYRQAPGKQREFVAYITATNSANYLDSVNGRFTISRDNAKNSVYLQMNSLKPEDTAVYYCNAKQIVGFQIDEYWGQGTQVTVSS
notes: tested as periplasmic extract; also called 2CRMS16
B12: anti-IL-12Rβ2 VHH clone 20522 (VHH, not shown: small tags and cut ends)
VHH: QVQLQESGGGLVQPGGSLRLSCTASGSIFAIDDMYWYRQAPGKQREFVAYITATNSANYLDSVNGRFTISRDNAKNSVYLQMNSLKPEDTAVYYCNAKQIVGFQIDDYWGQGTQVTVSS
notes: tested as periplasmic extract; also called 2CRMS58
B13: anti-IL-12Rβ2 VHH clone 20518 (VHH, not shown: small tags and cut ends)
VHH: QVQLQESGGGLVQPGGSLRLSCTASGSIFAIDDMYWYRQAPGRQREFVAYITATNSANYLDSVNGRFTISRDNAKNSVYLQMNSLKPEDTAVYYCNAKQIVGFQIDEYWGQGTQVTVSS
notes: tested as periplasmic extract; also called 2CRMS15
B14: anti-IL-12Rβ2 VHH clone 20524 (VHH, not shown: small tags and cut ends)
VHH: QVQLQESGGGLVQAGGSLRLSCTASGSIFAIDDMYWYRQAPGKQREFVAYITATNSANYLDPVNGRFTISRDNAKNSVYLQMNSLKPEDTAVYYCNAKQIVGFQIDEYWGQGTQVTVSS
notes: tested as periplasmic extract; also called 3CRMS14
B15: anti-IL-12Rβ2 VHH clone 20529 (VHH, not shown: small tags and cut ends)
VHH: QVQLQESGGGSVQAGDSLRLSCTASGSIFAIDDMYWYRQAPGKQREFVAYITATNSANYLDSVNGRFTISRDNAKNSVYLQMNSLKPEDTAVYYCNAKQIVGFQIDEYWGQGTQVTVSS
notes: tested as periplasmic extract; also called 3CRMS94
B16: anti-IL-12Rβ2 VHH clone 20479 (VHH, not shown: small tags and cut ends)
VHH: QVQLQESGGGLVQTGGSLRLSCAASGRTFSNSVMGWFRQAPGKEREFVAALMWSAGSEFYTDSVKGRFSISGDGAKNTVYLQMNSLKAEDTAVYYCAAKNPPHRWSDIGKSPHYEYWGQGTQVTVSS
notes: tested as periplasmic extract; also called 2CAM33
B17: anti-IL-12Rβ2 VHH clone 20483 (VHH, not shown: small tags and cut ends)
VHH: QVQLQESGGGLVQAGGSLRLSCAASGRTFSNSVIGWFRQAPGKEREFVAALSWSAGSEFYVDSFKGRFSISRDNAKNTVYLQMNSLKPEDTAVYYCAAKNPPHRWSDIGKSPQYAYWGQGTQVTVSS
notes: tested as periplasmic extract; also called 2CAM41
B18: anti-IL-12Rβ2 VHH clone 20484 (VHH, not shown: small tags and cut ends)
VHH: QVQLQESGGGLVQPGGSLRLSCAASGRTFSNSVMGWFRQAPGKEREFVAALMWSAGSEFYTDSVKGRFSISGDGAKNTVYLQMNSLKAEDTAVYYCAAKNPPHRWSDIGKSPHYEYWGQGTQVTVSS
notes: tested as periplasmic extract; also called 2CAM42
B19: anti-IL-12Rβ2 VHH clone 20496 (VHH, not shown: small tags and cut ends)
VHH: QVQLQESGGGLVQAGGSLRLSCAASGRTLSNSVMGWFRQAPGKEREFVAALMWSAGSEFYTDSVKGRFSISGDGAKNTVYLQMNSLKAEDTAVYYCAAKNPPHRWSDIGKSPHYEYWGQGTQVTVSS
notes: tested as periplasmic extract; also called 2CAM71

Legend:
[1] = biological target: T1, biotinylated recombinant mouse IL-12Rβ2 (mouse, UniProt P97378 24-637, random biotinylated); experiment: ELISA, periplasmic extract on biotinylated mIL-12Rβ2, signal over control wells
T1 construct: Recombinant protein produced in-house, biotinylated; also called mIL-12RB2; mouse IL-12RB2
T1 sequence: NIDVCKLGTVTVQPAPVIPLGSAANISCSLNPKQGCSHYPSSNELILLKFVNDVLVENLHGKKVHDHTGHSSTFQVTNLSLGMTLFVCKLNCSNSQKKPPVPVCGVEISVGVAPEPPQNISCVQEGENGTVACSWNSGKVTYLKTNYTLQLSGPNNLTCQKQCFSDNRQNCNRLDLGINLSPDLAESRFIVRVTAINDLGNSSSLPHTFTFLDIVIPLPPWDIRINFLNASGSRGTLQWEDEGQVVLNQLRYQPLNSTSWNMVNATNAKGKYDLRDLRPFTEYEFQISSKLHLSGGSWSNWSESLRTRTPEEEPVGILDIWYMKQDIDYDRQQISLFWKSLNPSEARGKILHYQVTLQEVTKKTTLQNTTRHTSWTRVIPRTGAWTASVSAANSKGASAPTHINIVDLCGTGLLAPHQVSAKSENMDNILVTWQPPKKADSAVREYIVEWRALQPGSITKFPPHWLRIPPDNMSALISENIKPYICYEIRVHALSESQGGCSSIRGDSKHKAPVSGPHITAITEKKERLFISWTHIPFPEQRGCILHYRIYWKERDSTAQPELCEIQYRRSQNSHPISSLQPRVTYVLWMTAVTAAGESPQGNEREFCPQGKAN

[2] = biological target: T2, biotinylated recombinant human IL-12Rβ2 (human, UniProt Q99665 24-622, random biotinylated); experiment: ELISA, periplasmic extract on biotinylated hIL-12Rβ2, signal over control wells
T2 construct: Recombinant protein produced in-house, biotinylated; also called hIL-12RB2; human IL-12RB2
T2 sequence: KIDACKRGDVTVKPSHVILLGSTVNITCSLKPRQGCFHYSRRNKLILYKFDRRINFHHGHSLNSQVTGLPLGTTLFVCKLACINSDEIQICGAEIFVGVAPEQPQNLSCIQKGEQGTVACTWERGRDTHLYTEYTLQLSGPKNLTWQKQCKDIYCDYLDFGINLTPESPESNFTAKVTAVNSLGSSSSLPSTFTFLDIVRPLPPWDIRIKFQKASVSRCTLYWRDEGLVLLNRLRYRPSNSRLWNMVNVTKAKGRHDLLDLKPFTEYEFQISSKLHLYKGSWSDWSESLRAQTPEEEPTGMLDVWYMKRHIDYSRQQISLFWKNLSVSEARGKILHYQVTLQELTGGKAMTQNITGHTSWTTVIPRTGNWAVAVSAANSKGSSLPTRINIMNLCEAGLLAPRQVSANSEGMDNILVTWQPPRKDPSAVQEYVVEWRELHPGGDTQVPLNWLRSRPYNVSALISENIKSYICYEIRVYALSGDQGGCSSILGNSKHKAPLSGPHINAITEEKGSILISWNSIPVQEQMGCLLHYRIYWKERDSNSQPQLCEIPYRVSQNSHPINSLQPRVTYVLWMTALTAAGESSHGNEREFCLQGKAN

Binder | ELISA binding mIL-12RB2/control [1] | ELISA binding hIL-12RB2/control [2]
B1 | 4.28 ratio | 0.849 ratio
B2 | 15.2 ratio | 0.99 ratio
B3 | 5.71 ratio | 0.991 ratio
B4 | 12 ratio | 1.31 ratio
B5 | 8.48 ratio | 1.03 ratio
B6 | 3.81 ratio | 0.812 ratio
B7 | 6.43 ratio | 1.01 ratio
B8 | 9.24 ratio | 0.955 ratio
B9 | 14.5 ratio | 1.05 ratio
B10 | 5.47 ratio | 0.968 ratio
B11 | 5.44 ratio | 0.973 ratio
B12 | 5.21 ratio | 1.01 ratio
B13 | 4.43 ratio | 1.01 ratio
B14 | 9.62 ratio | 0.93 ratio
B15 | 13.2 ratio | 0.858 ratio
B16 | 9.41 ratio | 1.07 ratio
B17 | 4.68 ratio | 1.01 ratio
B18 | 4.86 ratio | 1.01 ratio
B19 | 19.5 ratio | 1.01 ratio
